According to the supplement of paper PMC9112550, “Optimization of the antimicrobial peptide Bac7 by deep mutational scanning” (BMC Biology, 2022):

system: Escherichia coli TOP10; assay: shrunken log2 fold change of peptide-encoding DNA abundance (4.5 h post-induction vs induction); higher = less antimicrobial activity (less host growth inhibition); conditions: time post-induction: 4.5 h; library: site-saturation at positions 5, 18, 19, 20
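Also: peptides expressed intracellularly from a pBAD plasmid library in pooled LB shake-flask culture, induced with 0.3% L-arabinose, DNA abundance read by NGS, three biological replicates, DESeq2 with apeglm shrinkage.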

Sequence | shrunken log2 fold change
RRIRGRPPRLPRPRPRPNVYPRP | 0.205
RRIRGRPPRLPRPRPRPNWGPRP | 0.44
RRIRGRPPRLPRPRPRPNWNPRP | -0.00809
RRIRGRPPRLPRPRPRPPAWPRP | 1.34
RRIRGRPPRLPRPRPRPPCNPRP | 0.489
RRIRGRPPRLPRPRPRPPCTPRP | 0.76
RRIRGRPPRLPRPRPRPPCWPRP | 1.09
RRIRGRPPRLPRPRPRPPECPRP | 0.483
RRIRGRPPRLPRPRPRPPERPRP | 1.02
RRIRGRPPRLPRPRPRPPFHPRP | 0.24
RRIRGRPPRLPRPRPRPPGNPRP | 0.432
RRIRGRPPRLPRPRPRPPGPPRP | 0.821
RRIRGRPPRLPRPRPRPPHNPRP | 0.585
RRIRGRPPRLPRPRPRPPILPRP | -0.0529
RRIRGRPPRLPRPRPRPPITPRP | 0.0357
RRIRGRPPRLPRPRPRPPKQPRP | 0.292
RRIRGRPPRLPRPRPRPPLSPRP | 0.897
RRIRGRPPRLPRPRPRPPMKPRP | 0.138
RRIRGRPPRLPRPRPRPPNVPRP | 0.431
RRIRGRPPRLPRPRPRPPPQPRP | 1.55
RRIRGRPPRLPRPRPRPPQDPRP | 0.781
RRIRGRPPRLPRPRPRPPRIPRP | 0.719
RRIRGRPPRLPRPRPRPPVTPRP | 0.728
RRIRGRPPRLPRPRPRPQASPRP | 1.03
RRIRGRPPRLPRPRPRPQDIPRP | -0.398

Sequence | shrunken log2 fold change
RRIRGRPPRLPRPRPRPQDNPRP | 0.0555
RRIRGRPPRLPRPRPRPQEAPRP | 0.492
RRIRGRPPRLPRPRPRPQETPRP | -0.0108
RRIRGRPPRLPRPRPRPQFVPRP | 0.0536
RRIRGRPPRLPRPRPRPQGLPRP | 0.335
RRIRGRPPRLPRPRPRPQHAPRP | 0.797
RRIRGRPPRLPRPRPRPQIEPRP | 0.462
RRIRGRPPRLPRPRPRPQIRPRP | 0.808
RRIRGRPPRLPRPRPRPQKHPRP | 0.982
RRIRGRPPRLPRPRPRPQKLPRP | 0.13
RRIRGRPPRLPRPRPRPQKVPRP | 0.129
RRIRGRPPRLPRPRPRPQLGPRP | 0.649
RRIRGRPPRLPRPRPRPQLSPRP | 0.0797
RRIRGRPPRLPRPRPRPQMYPRP | 0.0854
RRIRGRPPRLPRPRPRPQNMPRP | -0.399
RRIRGRPPRLPRPRPRPQQRPRP | 1.43
RRIRGRPPRLPRPRPRPQSIPRP | 0.108
RRIRGRPPRLPRPRPRPQSQPRP | 0.139
RRIRGRPPRLPRPRPRPQSRPRP | 0.328
RRIRGRPPRLPRPRPRPQSYPRP | 0.113
RRIRGRPPRLPRPRPRPQVAPRP | 0.34
RRIRGRPPRLPRPRPRPQVRPRP | 0.713
RRIRGRPPRLPRPRPRPQYIPRP | -0.27
RRIRGRPPRLPRPRPRPRDGPRP | 1.27
RRIRGRPPRLPRPRPRPRDNPRP | 0.0439

Sequence | shrunken log2 fold change
RRIRGRPPRLPRPRPRPRFVPRP | 0.467
RRIRGRPPRLPRPRPRPRGKPRP | 0.341
RRIRGRPPRLPRPRPRPRKAPRP | 0.693
RRIRGRPPRLPRPRPRPRNAPRP | 0.619
RRIRGRPPRLPRPRPRPRNWPRP | 1.35
RRIRGRPPRLPRPRPRPRPMPRP | 1.51
RRIRGRPPRLPRPRPRPRPYPRP | 0.246
RRIRGRPPRLPRPRPRPRRCPRP | 0.548
RRIRGRPPRLPRPRPRPRRGPRP | 0.813
RRIRGRPPRLPRPRPRPRRMPRP | 0.706
RRIRGRPPRLPRPRPRPRSDPRP | 0.555
RRIRGRPPRLPRPRPRPRSEPRP | 0.29
RRIRGRPPRLPRPRPRPRSFPRP | -0.0397
RRIRGRPPRLPRPRPRPRSGPRP | 0.83
RRIRGRPPRLPRPRPRPRTYPRP | 0.0193
RRIRGRPPRLPRPRPRPRVDPRP | 1.57
RRIRGRPPRLPRPRPRPRVEPRP | 0.432
RRIRGRPPRLPRPRPRPRVWPRP | 0.547
RRIRGRPPRLPRPRPRPRWRPRP | 0.973
RRIRGRPPRLPRPRPRPSAEPRP | 2.33
RRIRGRPPRLPRPRPRPSAHPRP | 1.12
RRIRGRPPRLPRPRPRPSAQPRP | 1.26
RRIRGRPPRLPRPRPRPSCSPRP | 0.295
RRIRGRPPRLPRPRPRPSCYPRP | -0.0977
RRIRGRPPRLPRPRPRPSFNPRP | 0.131

Sequence | shrunken log2 fold change
RRIRGRPPRLPRPRPRPSHAPRP | 0.423
RRIRGRPPRLPRPRPRPSKWPRP | -0.158
RRIRGRPPRLPRPRPRPSLNPRP | 0.105
RRIRGRPPRLPRPRPRPSMHPRP | 0.421
RRIRGRPPRLPRPRPRPSMLPRP | 0.58
RRIRGRPPRLPRPRPRPSMTPRP | 2.35
RRIRGRPPRLPRPRPRPSPRPRP | 0.927
RRIRGRPPRLPRPRPRPSQAPRP | 0.612
RRIRGRPPRLPRPRPRPSSCPRP | 0.316
RRIRGRPPRLPRPRPRPSSIPRP | 0.0764
RRIRGRPPRLPRPRPRPSSPPRP | -0.0496
RRIRGRPPRLPRPRPRPSSVPRP | 0.282
RRIRGRPPRLPRPRPRPSSYPRP | -0.128
RRIRGRPPRLPRPRPRPSTFPRP | 0.112
RRIRGRPPRLPRPRPRPSTKPRP | 0.261
RRIRGRPPRLPRPRPRPSTLPRP | 0.152
RRIRGRPPRLPRPRPRPSYQPRP | -0.0215
RRIRGRPPRLPRPRPRPSYYPRP | 0.118
RRIRGRPPRLPRPRPRPTARPRP | 1.27
RRIRGRPPRLPRPRPRPTCFPRP | 1.14
RRIRGRPPRLPRPRPRPTCTPRP | 0.975
RRIRGRPPRLPRPRPRPTFNPRP | 0.31
RRIRGRPPRLPRPRPRPTHCPRP | 0.433
RRIRGRPPRLPRPRPRPTHVPRP | 0.483
RRIRGRPPRLPRPRPRPTIEPRP | 0.673

Sequence | shrunken log2 fold change
RRIRGRPPRLPRPRPRPTIKPRP | 0.48
RRIRGRPPRLPRPRPRPTINPRP | 0.477
RRIRGRPPRLPRPRPRPTIVPRP | 0.779
RRIRGRPPRLPRPRPRPTMHPRP | 0.715
RRIRGRPPRLPRPRPRPTNCPRP | 0.31
RRIRGRPPRLPRPRPRPTNFPRP | -0.0941
RRIRGRPPRLPRPRPRPTPFPRP | 0.629
RRIRGRPPRLPRPRPRPTPLPRP | 0.747
RRIRGRPPRLPRPRPRPTQWPRP | 0.387
RRIRGRPPRLPRPRPRPTRWPRP | 0.739
RRIRGRPPRLPRPRPRPTTCPRP | 0.849
RRIRGRPPRLPRPRPRPTVCPRP | 0.798
RRIRGRPPRLPRPRPRPTVYPRP | 0.185
RRIRGRPPRLPRPRPRPTWYPRP | 0.159
RRIRGRPPRLPRPRPRPVANPRP | 0.623
RRIRGRPPRLPRPRPRPVDYPRP | -0.0159
RRIRGRPPRLPRPRPRPVEDPRP | 0.0393
RRIRGRPPRLPRPRPRPVEMPRP | 0.556
RRIRGRPPRLPRPRPRPVFRPRP | 0.375
RRIRGRPPRLPRPRPRPVGDPRP | 0.802
RRIRGRPPRLPRPRPRPVHGPRP | -0.244
RRIRGRPPRLPRPRPRPVIEPRP | 0.599
RRIRGRPPRLPRPRPRPVKAPRP | 0.659
RRIRGRPPRLPRPRPRPVKSPRP | 0.0201
RRIRGRPPRLPRPRPRPVLEPRP | 0.795

Sequence | shrunken log2 fold change
RRIRGRPPRLPRPRPRPVLRPRP | 0.656
RRIRGRPPRLPRPRPRPVMDPRP | 0.96
RRIRGRPPRLPRPRPRPVMLPRP | 0.317
RRIRGRPPRLPRPRPRPVPLPRP | 0.13
RRIRGRPPRLPRPRPRPVRHPRP | 0.496
RRIRGRPPRLPRPRPRPVSCPRP | 0.885
RRIRGRPPRLPRPRPRPVTIPRP | 0.0068
RRIRGRPPRLPRPRPRPVVCPRP | 0.812
RRIRGRPPRLPRPRPRPVVPPRP | 0.338
RRIRGRPPRLPRPRPRPVWQPRP | 0.174
RRIRGRPPRLPRPRPRPVYCPRP | 0.0683
RRIRGRPPRLPRPRPRPVYHPRP | -0.174
RRIRGRPPRLPRPRPRPWAFPRP | 0.488
RRIRGRPPRLPRPRPRPWAQPRP | -0.035
RRIRGRPPRLPRPRPRPWARPRP | 0.241
RRIRGRPPRLPRPRPRPWDSPRP | -0.479
RRIRGRPPRLPRPRPRPWECPRP | -0.00149
RRIRGRPPRLPRPRPRPWFYPRP | -0.4
RRIRGRPPRLPRPRPRPWGHPRP | 0.152
RRIRGRPPRLPRPRPRPWHHPRP | -0.26
RRIRGRPPRLPRPRPRPWINPRP | -0.137
RRIRGRPPRLPRPRPRPWKKPRP | -0.00973
RRIRGRPPRLPRPRPRPWKYPRP | -0.115
RRIRGRPPRLPRPRPRPWMFPRP | 0.0448
RRIRGRPPRLPRPRPRPWMQPRP | -0.539
